B1: Wnt3a: Wnt molecule known to inhibit AChR clustering in mice (protein, UniProt P56704 19-352, looked up)
Protein Wnt-3a: SYPIWWSLAVGPQYSSLGSQPILCASIPGLVPKQLRFCRNYVEIMPSVAEGIKIGIQECQHQFRGRRWNCTTVHDSLAIFGPVLDKATRESAFVHAIASAGVAFAVTRSCAEGTAAICGCSSRHQGSPGKGWKWGGCSEDIEFGGMVSREFADARENRPDARSAMNRHNNEAGRQAIASHMHLKCKCHGLSGSCEVKTCWWSQPDFRAIGDFLKDKYDSASEMVVEKHRESRGWVETLRPRYTYFKVPTERDLVYYEASPNFCEPNPETGSFGTRDRTCNVSSHGIDGCDLLCCGRGHNARAERRREKCRCVFHWCCYVSCQECTRVYDVHTCK
B2: Wnt4: Wnt molecule known to stimulate AChR clustering in mice (protein, UniProt P56705 23-351, looked up)
Protein Wnt-4: SNWLYLAKLSSVGSISEEETCEKLKGLIQRQVQMCKRNLEVMDSVRRGAQLAIEECQYQFRNRRWNCSTLDSLPVFGKVVTQGTREAAFVYAISSAGVAFAVTRACSSGELEKCGCDRTVHGVSPQGFQWSGCSDNIAYGVAFSQSFVDVRERSKGASSSRALMNLHNNEAGRKAILTHMRVECKCHGVSGSCEVKTCWRAVPPFRQVGHALKEKFDGATEVEPRRVGSSRALVPRNAQFKPHTDEDLVYLEPSPDFCEQDMRSGVLGTRGRTCNKTSKAIDGCELLCCGRGFHTAQVELAERCSCKFHWCCFVKCRQCQRLVELHTCR

The subject of this test is acetylcholine receptors (AChR) clustering in myotubes derived from human primary cells. The test can be described thus: Acetylcholine receptor clustering in primary human myotubes cultured on micropatterns (TMR-Bungarotoxin probe). Type of test: cell-based. To be noted: FIG. 8A/8B. Here is the method:
FIG. 8B is a quantification of the regulation of cluster formation through agrin and Wnt signaling;
C2C12 mouse or primary human myoblasts (HSMM, Lonza) were cultured on fibronectin coated micropatterns within growth medium (DMEM, 20% FBS, 0.5% P/S, or Lonza SkGM™-2 cell culture Kit respectively) during 24 hours. Then both cell types were cultured within differentiation medium (DMEM/F12, 2% Horse Serum, 0.5% P/S) during 5 to 11 days for HSMM and C2C12 respectively. Differentiation medium were changed every 2 days. Cells were fixed and an immunostaining was realized against myosin heavy chain (in green in a color image—in light grey in the appended black&white figures), actin (in red in a color image—in medium grey in the appended black&white figures) and nuclei (in blue in a color image—in dark grey in the appended black&white figures). Images were acquired using an epifluorescence microscope (DMI6000, Leica).
As for “agrin: treatment inducing acetylcholine receptor clustering in myotubes [reference compound]”, the “Effect on AChR clustering / cluster formation” value is “large clustering”. Turning to B1, the “Effect on AChR clustering / cluster formation” value was “inhibit”.

As to B2, the “Effect on AChR clustering / cluster formation” value is reported as “stimulate”.

The values are drawn from patent US10711248B2, “Device and method for standardizing myoblast differentiation into myotubes” (Cytoo, priority 2013, dated 2020).
